Where two headings read alike, the source gives them in different places.
B1: MIRO1_(1-591), full-length cytosolic human MIRO1 (domain or fragment, UniProt Q8IXI2 1-591, looked up)
chain: MKKDVRILLVGEPRVGKTSLIMSLVSEEFPEEVPPRAEEITIPADVTPERVPTHIVDYSEAEQSDEQLHQEISQANVICIVYAVNNKHSIDKVTSRWIPLINERTDKDSRLPLILVGNKSDLVEYSSMETILPIMNQYTEIETCVECSAKNLKNISELFYYAQKAVLHPTGPLYCPEEKEMKPACIKALTRIFKISDQDNDGTLNDAELNFFQRICFNTPLAPQALEDVKNVVRKHISDGVADSGLTLKGFLFLHTLFIQRGRHETTWTVLRRFGYDDDLDLTPEYLFPLLKIPPDCTTELNHHAYLFLQSTFDKHDLDRDCALSPDELKDLFKVFPYIPWGPDVNNTVCTNERGWITYQGFLSQWTLTTYLDVQRCLEYLGYLGYSILTEQESQASAVTVTRDKKIDLQKKQTQRNVFRCNVIGVKNCGKSGVLQALLGRNLMRQKKIREDHKSYYAINTVYVYGQEKYLLLHDISESEFLTEAEIICDVVCLVYDVSNPKSFEYCARIFKQHFMDSRIPCLIVAAKSDLHEVKQEYSISPTDFCRKHKMPPPQAFTCNTADAPSKDIFVKLTTMAMYPHVTQADLKSST

Columns and labels:
MIRO1_(177-591) = MIRO1_(177-591) (human, UniProt Q8IXI2 177-591); test: ITC
mass photometry = target: the molecule itself; test: mass photometry
[1] = target: B1; test: pull-down
[2] = target: B1; test: pull-down; remark: listed apart in the source
cryo-EM structure = target: the molecule itself; test: cryo-EM structure

For RSLTPSPMNIPGSNQS (peptide, UniProt Q9UPV9 416-431, looked up) [MBP-TRAK1_(416-431)], the Kd (MIRO1_(177-591)) was 10.9 to 15.9 µM and the “stoichiometry N” value (MIRO1_(177-591)) was 1.

In the case of B1, the “stoichiometry N” value (mass photometry) is reported as 2.

B2: MBP-TRAK1_(416-446,561-623) (domain or fragment, human, UniProt Q9UPV9 416-446, looked up)
chain: RSLTPSPMNIPGSNQSSAMNSLLSSCVSTPRGMSFSSRSYLPEKLQIVKPLEGSATLHHWQQLAQPHLGGILDPRPGVVTKGFRTLDVDLDEVY
B2: binds [1].

B3: MBP-TRAK1_(416-446,561-623) L597D (domain or fragment, human, UniProt Q9UPV9 416-446, looked up)
chain: RSLTPSPMNIPGSNQSSAMNSLLSSCVSTPRGMSFSSRSYLPEKLQIVKPLEGSATLHHWQQLAQPHDGGILDPRPGVVTKGFRTLDVDLDEVY
B3: binds [2].

B4: MBP-TRAK1_(416-446,561-623) W589D (domain or fragment, human, UniProt Q9UPV9 416-446, looked up)
chain: RSLTPSPMNIPGSNQSSAMNSLLSSCVSTPRGMSFSSRSYLPEKLQIVKPLEGSATLHHDQQLAQPHLGGILDPRPGVVTKGFRTLDVDLDEVY
B4: binds [2].

B5: TRAK1_(569-623) (domain or fragment, human, UniProt Q9UPV9 569-623, looked up)
chain: YLPEKLQIVKPLEGSATLHHWQQLAQPHLGGILDPRPGVVTKGFRTLDVDLDEVY
B5: binds (cryo-EM structure).

Source: publication PMC12227652 (Nature Communications, 2025)
